Assay results as given in publication PMC6098130.

Target: IgM-BCR (Ighm) (mouse (endogenous in primary B cells))

median diffusion coefficient of IgM in galectin-9-high regions (against 0.028 μm^2/s in galectin-9-low regions), single-particle tracking on Gal9-KO B cells treated with fluorescently labeled rGal9: 0.012 μm^2/s
Substance: recombinant mouse galectin-9 (rGal9, E. coli-derived, R&D Systems) (from UniProt O08573 1-353) (natural protein)
